Measurements: article PMC5566498, “SIRT7 antagonizes TGF-β signaling and inhibits breast cancer metastasis” (Nature Communications, 2017)

Target: T1, 6× His-tagged SMAD4 (UniProt Q13485 1-552)
T1 construct: SMAD4; also called 6× His-SMAD4; source: purified from bacterial culture
T1 sequence (looked up): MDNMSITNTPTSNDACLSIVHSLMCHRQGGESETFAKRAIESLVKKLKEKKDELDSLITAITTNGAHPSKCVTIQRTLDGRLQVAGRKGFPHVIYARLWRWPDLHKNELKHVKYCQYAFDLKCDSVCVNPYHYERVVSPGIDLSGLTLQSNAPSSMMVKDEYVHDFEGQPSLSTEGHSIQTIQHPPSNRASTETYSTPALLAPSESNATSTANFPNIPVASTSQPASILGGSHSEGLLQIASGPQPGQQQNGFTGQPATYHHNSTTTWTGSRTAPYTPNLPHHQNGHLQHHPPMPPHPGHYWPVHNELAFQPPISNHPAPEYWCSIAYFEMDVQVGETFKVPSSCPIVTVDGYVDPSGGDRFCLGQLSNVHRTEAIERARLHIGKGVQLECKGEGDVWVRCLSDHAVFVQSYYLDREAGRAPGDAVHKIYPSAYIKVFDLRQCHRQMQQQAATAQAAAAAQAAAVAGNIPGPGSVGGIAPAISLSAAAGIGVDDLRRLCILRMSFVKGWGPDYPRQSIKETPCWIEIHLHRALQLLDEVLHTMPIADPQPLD
Test: pull-down; 1 µg GST-SIRT7 on Glutathione-Sepharose 4B, incubated with 6× His-SMAD4 for 2 h at 4 °C in 120 mM KCl, 20 mM Tris-HCl pH 7.9, 5 mM MgCl2, 0.2 mM EDTA, 10% glycerol, 0.2% NP-40; immunoblot
Details: both partners purified

binding result: binds
B1: GST-SIRT7 (enzyme, UniProt Q9NRC8 1-400, looked up)
chain: MAAGGLSRSERKAAERVRRLREEQQRERLRQVSRILRKAAAERSAEEGRLLAESADLVTELQGRSRRREGLKRRQEEVCDDPEELRGKVRELASAVRNAKYLVVYTGAGISTAASIPDYRGPNGVWTLLQKGRSVSAADLSEAEPTLTHMSITRLHEQKLVQHVVSQNCDGLHLRSGLPRTAISELHGNMYIEVCTSCVPNREYVRVFDVTERTALHRHQTGRTCHKCGTQLRDTIVHFGERGTLGQPLNWEAATEAASRADTILCLGSSLKVLKKYPRLWCMTKPPSRRPKLYIVNLQWTPKDDWAALKLHGKCDDVMRLLMAELGLEIPAYSRWQDPIFSLATPLRAGEEGSHSRKSLCRSREEAPPGDRGAPLSSAPILGGWFGRGCTKRTKRKKVT
notes: SIRT7; also called purified GST-SIRT7; recombinant GST-SIRT7; source: recombinant, purified
